Experimental data from the DeepSol protein solubility set.

Test: soluble on expression in E. coli; label from the status in PepcDB or PDB records

| Sequence | soluble on expression in E. coli |
| --- | --- |
| MGSDKIHHHHHHMNSTITPTLNLKAQHAERRVVVTGASGYVGARLVVELLSTGFNVRATSRSLSSLKRFPWYDQVEAVEADLSISEDVNRLFEDVDTVFYLVHSMSGTQNFEELESKIASKVAQAAHSNGVRQIIYLSGLHPRTELDKLSPHMRSRENVARILGSTAVPAITFRAATLIGSGSASFEMIRHLTERLPIMVAPQWINNKIEPISIRDTLYYLVKAADLPEPINEEFDIGSGHIYTFADLLRIYGKIRGLRRTIVSLPIPLPLDTLSGLWIAAITPAPLSLAQPLAQSMQEDAICSNRSIRDYISDPPSGLADYPTSVRRALQQESMGVLSSWDSSWKNLSSTDHLPSDPEWTGRTVYSDVQEQSFRSEPAKVWRVIEGIGGHHGWYSTPLLWFVRGVIDKAIGGPGLGGRRDPNRLRVGDRVDFWRVEEVTPEKQLTLRAEMRASGQAWLQFTINGNTLRQRAVYFPKGLLGRVYWLALIPFHAVIFPTMLRNIIQAGDN | not soluble |
| MGSDKIHHHHHHMILSDPRFVALSNWLYQYFGDKVAINLICGDASFRRYFRLHHQGIDYIVSDSPIDLVPIAPFLAMAKAYQHAGLLVPEVLATCNDYGFVLQTDVGELQLLSVLNKDNVTDYYKQALNLLPVIATVTETDNGPLADYDDTFVARELAIFVDWLLKEHLDYVLTDNEQQMIATTFSALTDNVLAQPKVGMHRDYHSRNLLINDQALAVIDFQDAVHGPVTYDAVSLLRDCYVRWPDDIVNHLMRYHYQLAIAHQLIDENVDFATYTKWFDLMGLQRHIKAAGIFARLYHRDGKRGYLADIPLTLQYVADIGIKYPQIADFSLWIHKVILPLVNHKNTHEVVSEA | not soluble |
| MAHHHHHHMSSHALSSGSAPNVSSATTGTVAQQADSLTRNLLLGIPKEGLSPDSPEAADLQAAEAFVSDIQQEILAYDIANAKAIELYAVRWWSAVPFFGRHAKRALAAESTAAAAAAAGETHESTEAAAAAVAVDGSANSSEGHGLRLSPEEAAAALQSGGAYLHRQTSQTPRGFKVERTSALDPGQLSQLAGGASGASESKAVPVPKVNTWLFRRQHPSWVPLMQRWWVPWLCCGSIVLIWTPDVWKLRTLYFCDHQYALLRQSIHKAYWWATMRPEDYAEHIAAIAAERPSRVRGTSCPFE | not soluble |
| MGSSHHHHHHSSGLVPRGSHMDTKIGLEVHFQLNTGKLFCRCPVEQSSGELMRFSRKLHISASELGNIDAAASYESMRSRSFQYVVTDNSCLVEMDEEPPKTPDERAIATAISVSKALNCDIVDHITYMRKIVIDGSNTTGFQRTAIVGINGHIETSKGPVRISTVCLEEDAARKIEEIGNTVVYSLDRLGIPLIEISTEPDIVDEDHAVEVARSIGYIVISTGNARHAVDAVRQDVNFSMGYGRVEIKGVSKLTQIRDVIRYEKERQENLRAAVDLIKSRGGLDRVSFNLKDVSDLFAGTKSKIIRSGIESGGVYAGILKNMAGTLKNGKLRMGKEIADLVRSYGIKGVMHSDELPGYGLTQDEVEALYRYLGKGDNDAVLLIAINQSRVKMIENSIFDRIQKIISMDLSETRGPAGEETVFLRPMPGKDRMYPETDIPVIKVDSKLMEMSSSIKPRTYAEVVQDLVDRYGISKQNAEYIASEMVVDAFRNIAEFVEAREAARILTQIVPDLERRTKKIIDHDRIIELCRRSKDLHFDRYQLEMALEILYERDDVASVLGDSRLKELSREEIKSIIREILSSGRNATQNSIIALIKEKTERVFDPRVAMECFNEVKNKNNVF | soluble |
| MHTQRAGLSAIVATYRYQLATGVVYRDISSTIATEKIPFVENAVLKERAFIETIKQHQEPQRRIPRPVDSYVMLHSNARITTSRVIPQHKYKVTAKNPCRSIKRNAFQTAPSQTQLFISVNNRWLGLEHHHHHH | not soluble |
| INKINLNKPIIENKNNVDVSIKRYNNFVDIARLSIQKHFEHLSNDQKDSHVNNMEYMQKFVQGLQENRNISLSKYQENKAVMDLKYHLQKVYANYLSQEEN | soluble |
| MKTVVIGAGLGGLLSAARLSKAGHEVEVFERLPITGGRFTNLSYKGFQLSSGAFHMLPNGPGGPLACFLKEVEASVNIVRSEMTTVRVPLKKGNPDYVKGFKDISFNDFPSLLSYKDRMKIALLIVSTRKNRPSGSSLQAWIKSQVSDEWLIKFADSFCGWALSLKSDEVPVEEVFEIIENMYRFGGTGIPEGGCKGIIDALETVISANGGKIHTGQEVSKILIENGKAAGIIADDRIHDADLVISNLGHAATAVLCSEALSKEADAAYFKMVGTLQPSAGIKICLAADEPLVGHTGVLLTPYTRRINGVNEVTQADPELAPPGKHLTMCHQYVAPENVKNLESEIEMGLEDLKEIFPGKRYEVLLIQSYHDEWPVNRAASGTDPGNETPFSGLYVVGDGAKGKGGIEVEGVALGVMSVMEKVLGLEHHHHHH | soluble |
| MSLERLRVAAYCRVSTDSEDQLNSYKSQVQYYTDMIKKNKEWVLADIYADEAITGTQVTKREDFQRMINDCMNGEIDMVITKSISRFARNTLDTLKYVRMLKERNIAVYFEDEKINTLTMDGELLLVVLSSVAQQEVENISANVKKGLKMKMKRGELVGFQGCLGYDYHPEDKTITVNQEEAEIVRYIFNRYVDGAGGSVIGQELENLGYKTKYGSSTWAPSTVIGIIKNEKYKGDILLGKTFTVDPISKRRLENMGEEDKFYMKDHHEPIISEEVFEKAQEILNRRNKNREGHHHHHH | soluble |
| MSLRASGSGANPDKTWESRSLPIGNGSLGANILGSVAAERITLNEKTLWKGGPNTSKGAEYYWDVNKQSAGVLKEIRQAFLDEDKEKAAQLTRNNFNGLAAYEEKDETPFRFGSFTTMGELYVETGLNELRMSNYRRILSLDSAMVVVQFDKDGVQYQRKYFISYPDSVMVMKFTANQSGKQNLILSYCPNSEAKSNLRADGKDGLVYTGVLDNNGMKFAFRIKAIHKGGTLEAENDRLIVKGADEVVFLLTADTDYKMNFNPDFKDPKTYVGNDPEQTTRIMMDQAVQKGYDELYRNHEADHTALFNRVRLQLNPDISSPNLPTYQRLANYKKGTPDYQLEQLYYQFGRYLLIASSRPGNMPANLQGMWHNNLDGPWRVDYHNNINIQMNYWPACSANLSECTWPLIDFIRSLVKPGEQTAQAYFNARGWTASISANIFGFTAPLSSNMMSWNLNPTAGPWLATHIWEYYDYTRDKKFLKEIGYDLIKSSAQFAVDHLWHKPDGTYTAAPSTSPEHGPIDEGVTFAHAVVREILLDAIQASKELGIDSKERKQWEKILDKLVPYRIGRYGQLMEWSTDIDDPEDEHRHVNHLFGLHPGHTISPITTPKLAEAAKVVLEHRGDGATGWSMGWKLNQWARLQDGNHAYKLYGNLLKNGTLDNLWDTHAPFQIDGNFGGTAGITEMLLQSHMGFIQLLPALPDAWKNGSITGICAKGNFEISISWKEGQLDKATILSGSGTPCNVRYGDKTLSFSTVKGKKYEITLVGNLLKLEGHHHHHH | soluble |
| AIADYSNTYGAYGGGGFLPESPARTGGNASTRFGVGSGSSLRDQRRSLLPVRVADLVHAVHDPVTNTFVLRDENEHQSITISEGSIVKVVAYVEELREQPLDLLWLLDDRSGEMIWARMASTSSSSLAALEQSGILVRVFGQLLEVDGRRVLNVRAIRKADGEVELRYHENLCQLSKLQLIRGYPTAGNALAGASSSPASPKAGPSKAVHRSSLGSGAPKEMAQQAPGLEIPAAFPPEHFKVLKCIREETARNRDAMLTDIAQRIALSTTKVRGICDALQNEGHIYCTLDDDTFRASSS | soluble |
| MLWQKPTAPEQAPAPARPYQGVRVKEPVKELLRRKRGHASSGAA | soluble |
| MGSDKIHHHHHHMAKSALRVLEIMEFVATHKAGCATHTEISQALGIPKSSLTALLTDLQRPGYLELDRETGRYAIGSQVMFLAHAYLRNLNIVRLGTPVVHDVFLKLNVYTTMVIPKGDMCLVVCSESLPSPLAHSLSIGQHIPMLHSALGRAILAFLEPEEVERFLHDYTPTPYTDRTKTGIEEVRKALAQVRKAGFAHMQGEYLPGIIGIAVPVFNLENRPIAAIGIGIPAVEGTTEFEKRICKQLLHSADTLSRRLGAKLKPTPSKLLRKGEEE | not soluble |
| MGSDKIHHHHHHMNAVPKDEMTPLERMAAFAAGKPYDRIPCSSFSGETACHFIGTTVSEYRHSAKLMARVETVTYKMFGHDGAGVGPGFLALAEAMGTELKYPEDNIPFVANPVLKNWDDFDKLEPADPHKDGKLPIYLEALAMIKDAIGDEVPIGSSVGGPFTTAALVRGTENFLKDLRRNPEMAHRLLQLVTNTTLNYIDAVMDMGCSVSIGDPTASGSLLSVKQFREFAKPYLSKLADRVIERTGKGPMLHICGDSTPIWSDMADTGAPTLSLDNVIDLAEAKKVVGERVCIMGNVKPIDTIMKGSHQQIEAEVKECLRKAYDSPKGFILAVGCQVPLGTTADNFMCFMNAARKYGRYPLNPDNFI | not soluble |
| QPKTFTVRIVTMDAEMEFNCEMKWKGKDLFDLVCRTLGLRETWFFGLQYTIKDTVAWLKMDKKVLDHDVSKEEPVTFHFLAKFYPENAEEELVQEITQHLFFLQVKKQILDEKVYCPPEASVLLASYAVQAKYGDYDPSVHKRGFLAQEELLPKRVINLYQMTPEMWEERITAWYAEHRGRARDEAEMEYLKIAQDLEMYGVNYFTIRNKKGTELLLGVDALGLHIYDPENRLTPKISFPWNEIRNISYSDKEFTIKPLDKKIDVFKFNSSKLRVNKLILQLCIGNHDLFMRRRKADSLEVQQMKAQAREEKARKQMERQRLA | soluble |
| MGSDKIHHHHHHMRVASERLILGDRITESLFLHTDIPIVEAGKKIGADELRRIKRFLIKEVDIEKRPEGMSEASMMDQELDDMIEDSIFDSLIETYNQVFTSWEQGLVPNVYDALRWVKESMPETMRRDDILPYFLERGTEAYTVRHAIYRGAIAQLLAEAAGKERKMIHDLWVASYFADCGLARIMEWRHTKRYEAMQQEIFHRHPAMAFQALQKENIISDTVKRLIVQHHERLDGSGYPLKVKGDKIMDHTRLFIVADVFAAMTSWRPYREAYKVYDAYCHLKARPMQYDSKYVMLLGQLLLPIEPGDRVLMSNGKIATVLRKNSIFDRPVIAYEEHNRRIVKDLMEDRQLNIIQLMD | not soluble |
| MGSDKIHHHHHHMSLVCSVIFIHHAFNANILDKDYAFSDGEILMVDNAVRTHFEPYERHFKEIGFNENTIKKYLQCTNIQTVTVPVPAKFLRASNVPTGLLNEMIAYLNSEERNHHNFSELLLFSCLSIFAACKGFITLLTNGVLSVSGKVRNIVNMKLAHPWKLKDICDCLYISESLLKKKLKQEQTTFSQILLDARMQHAKNLIRVEGSVNKIAEQCGYASTSYFIYAFRKHFGNSPKRVSKEYRCQRHTGMNTGNTMSALAI | not soluble |
| MRKCRCLKLRNVKLINIRRIAVMMRSSKMASERSTDVQAFIGELDGGVFETKIGAVLSEVASGVMNTKTKGKVSLNLEIEPFDENRLKIKHKLSYVRPTNRGKISEEDTTETPMYVNRGGRLTILQEDQGQLLTLAGEPDGKLRAAGHMAGDPLEHHHHHH | soluble |
| SEKLAASTEPQGPRPVLGRESVQVPDDQDFRSFRSECEAEVGWNLTYSRAGVSVWVQAVEMDRTLHKIKCRMECCDVPAETLYDVLHDIEYRKKWDSNVIETFDIARLTVNADVGYYSWRCPKPLKNRDVITLRSWLPMGADYIIMNYSVKHPKYPPRKDLVRAVSIQTGYLIQSTGPKSCVITYLAQVDPKGSLPKWVVNKSSQFLAPKAMKKMYKACLKYPEWKQKHLPHFKPWLHPEQSPLPSLALSELSVQHADSLENIDESAVAESREERMGGAGGEGSDDDTSLT | soluble |
